Test results from patent publication US11306156.
Read-outs that look alike come from different tables or passages of the source. Values belong to the substance of their own block, whether it stands above or below them.

Legend:
[1] = target: tissue factor (TF) antigen (UniProt P13726); experiment: SPR, His-captured Fab, TF as analyte, 1:1 fit; estimated (*) from a Fab differing only in L chain tag
[2] = target: tissue factor (TF) antigen (UniProt P13726); experiment: SPR, His-captured Fab, TF as analyte; against wild-type D3H44 Fab; KD of this row is an estimated (*) value
[3] = target: D3H44 Fab heavy chain L124E_K145M_Q179E; experiment: LCCA, SPR of light chain tags; L1:L2 DNA 1:3 normalized to 1:1; competitor m8
[4] = target: D3H44 Fab heavy chain L124E_K145T_Q179E; experiment: as above
[5] = target: D3H44 Fab heavy chain L124R_D146N_Q179K; experiment: as above
[6] = target: D3H44 Fab heavy chain L124R_Q179K; experiment: as above
[7] = target: D3H44 Fab heavy chain L124E_K145T_Q179E; experiment: LCCA, SPR of light chain tags; L1:L2 DNA 1:3 normalized to 1:1; competitor m9
[8] = target: D3H44 Fab heavy chain L124R_D146N_Q179K; experiment: as above
[9] = target: D3H44 Fab heavy chain L124E_L143E_K145T; experiment: LCCA, SPR of light chain tags; L1:L2 DNA 1:3 normalized to 1:1; competitor m10
[10] = target: D3H44 Fab heavy chain L124R_S186K; experiment: as above
[11] = target: D3H44 Fab heavy chain L124R_D146N_Q179K (H1 of LCCA sets 9358, 9359, 9357, 9351, 9352, 9353, 9354, 9350); experiment: LCCA: H1 co-expressed with L1 and L2 (DNA 333:250:749 ng), His-tag capture on SPR chip, light chain tags detected with anti-HA/anti-FLAG; competitor L2 Q124K_V133G_Q160K_S176R
[12] = target: D3H44 Fab heavy chain L124R_S186R; experiment: LCCA, SPR of light chain tags; L1:L2 DNA 1:3 normalized to 1:1; competitor m8
[13] = target: D3H44 Fab heavy chain L124R_S186R; experiment: LCCA, SPR of light chain tags; L1:L2 DNA 1:3 normalized to 1:1; competitor m9
[14] = target: D3H44 Fab heavy chain L124E_L143D_K145T (H1 of LCCA sets 9214, 9217, 9216, 9219, 9220, 9225, 9228, 9229); experiment: LCCA: H1 co-expressed with L1 and L2 (DNA 333:250:749 ng), His-tag capture on SPR chip, light chain tags detected with anti-HA/anti-FLAG; competitor L1 Q124K_V133G_S176R_T178K
[15] = target: D3H44 Fab heavy chain L124E_L143E_K145M (H1 of LCCA sets 9269, 9266, 9267, 9260, 9262, 9263); experiment: as above
[16] = target: D3H44 Fab heavy chain L124E_L143E_K145M (H1 of LCCA sets 9269, 9266, 9267, 9260, 9262, 9263); experiment: LCCA: H1 co-expressed with L1 and L2 (DNA 333:250:749 ng), His-tag capture on SPR chip, light chain tags detected with anti-HA/anti-FLAG; competitor L1 Q124K_V133G_S176R_T178R
[17] = target: D3H44 Fab heavy chain L124E_L143D_K145T (H1 of LCCA sets 9214, 9217, 9216, 9219, 9220, 9225, 9228, 9229)
[18] = target: D3H44 Fab heavy chain L124E_L143E_K145M (H1 of LCCA sets 9269, 9266, 9267, 9260, 9262, 9263)
[19] = target: D3H44 Fab heavy chain L124E_L143D_K145T (H1 of LCCA sets 9214, 9217, 9216, 9219, 9220, 9225, 9228, 9229); remark: listed apart in the source
[20] = target: D3H44 Fab heavy chain L124E_L143E_K145M (H1 of LCCA sets 9269, 9266, 9267, 9260, 9262, 9263); experiment: LCCA: H1 co-expressed with L1 and L2 (DNA 333:250:749 ng), His-tag capture on SPR chip, light chain tags detected with anti-HA/anti-FLAG; competitor L2 V133G_S176D_T178D_T180E
[21] = target: D3H44 Fab heavy chain L124E_L143D_K145T (H1 of LCCA sets 9214, 9217, 9216, 9219, 9220, 9225, 9228, 9229); experiment: LCCA: H1 co-expressed with L1 and L2 (DNA 333:250:749 ng), His-tag capture on SPR chip, light chain tags detected with anti-HA/anti-FLAG; competitor L2 Q124E_V133G_S176D_T178E_T180E
[22] = target: D3H44 Fab heavy chain L124E_L143E_K145M (H1 of LCCA sets 9269, 9266, 9267, 9260, 9262, 9263); experiment: as above
[23] = target: D3H44 Fab heavy chain L124R_S186K; experiment: LCCA, SPR of light chain tags; L1:L2 DNA 1:3 normalized to 1:1; competitor m8
[24] = target: D3H44 Fab heavy chain L124R_S186R (H1 of LCCA sets 9516 and 9515)
[25] = target: D3H44 Fab heavy chain L124R_S186R (H1 of LCCA sets 9516 and 9515); remark: listed apart in the source

Substance: D3H44 Fab heterodimer H1L1 of LCCA Set # 9104 (H1 L124E; L1 S131T_V133G_S176R_T178Y)
Kd [1]: 0.16 nM
Change in median values of KD compared to wild type (-(log(KD design)-log(KD wt))) [2]: -0.01 log

Substance: D3H44 light chain Q124K_V133G_S176R_T178R
median LCCA performance normalized to a L1:L2 DNA ratio of 1:1 (ratio H1-L1:H1-L2), H1-L1 share (ratio part of 100) [17]: 76
median LCCA performance normalized to a L1:L2 DNA ratio of 1:1 (ratio H1-L1:H1-L2), H1-L1 share (ratio part of 100) [18]: 87
median LCCA performance normalized to a L1:L2 DNA ratio of 1:1 (ratio H1-L1:H1-L2), H1-L1 share (ratio part of 100) [19]: 87
median LCCA performance normalized to a L1:L2 DNA ratio of 1:1 (ratio H1-L1:H1-L2), H1-L1 share (ratio part of 100) [20]: 62
median LCCA performance normalized to a L1:L2 DNA ratio of 1:1 (ratio H1-L1:H1-L2), H1-L1 share (ratio part of 100) [21]: 83
median LCCA performance normalized to a L1:L2 DNA ratio of 1:1 (ratio H1-L1:H1-L2), H1-L1 share (ratio part of 100) [22]: 84

Substance: D3H44 light chain Q124E_V133G_S176D_T178D_T180E
H1L1:H1L2 normalized median ratio (% of heavy chain paired) [3]: 8
H2L2:H2L1 normalized median ratio (% of heavy chain paired) [23]: 92
H2L2:H2L1 normalized median ratio (% of heavy chain paired) [12]: 92
median LCCA performance normalized to a L1:L2 DNA ratio of 1:1 (ratio H1-L1:H1-L2), H1-L1 share (ratio part of 100) [24]: 95
median LCCA performance normalized to a L1:L2 DNA ratio of 1:1 (ratio H1-L1:H1-L2), H1-L1 share (ratio part of 100) [25]: 94
median LCCA performance normalized to a L1:L2 DNA ratio of 1:1 (ratio H1-L1:H1-L2), H1-L2 share (ratio part of 100) [14]: 15

More lines, now with the values ahead:

H1L1:H1L2 normalized median ratio (% of heavy chain paired) [3]: 8
H1L1:H1L2 normalized median ratio (% of heavy chain paired) [4]: 5
H2L2:H2L1 normalized median ratio (% of heavy chain paired) [5]: 83
H2L2:H2L1 normalized median ratio (% of heavy chain paired) [6]: 93
H1L1:H1L2 normalized median ratio (% of heavy chain paired) [7]: 3
H2L2:H2L1 normalized median ratio (% of heavy chain paired) [8]: 80
H1L1:H1L2 normalized median ratio (% of heavy chain paired) [9]: 5
H2L2:H2L1 normalized median ratio (% of heavy chain paired) [10]: 92
median LCCA performance normalized to a L1:L2 DNA ratio of 1:1 (ratio H1-L1:H1-L2), H1-L1 share (ratio part of 100) [11]: 74
Substance: D3H44 light chain V133G_S176D_T178E_T180E

H1L1:H1L2 normalized median ratio (% of heavy chain paired) [3]: 6
H1L1:H1L2 normalized median ratio (% of heavy chain paired) [4]: 5
H2L2:H2L1 normalized median ratio (% of heavy chain paired) [12]: 88
H1L1:H1L2 normalized median ratio (% of heavy chain paired) [7]: 4
H2L2:H2L1 normalized median ratio (% of heavy chain paired) [13]: 85
median LCCA performance normalized to a L1:L2 DNA ratio of 1:1 (ratio H1-L1:H1-L2), H1-L2 share (ratio part of 100) [14]: 18
median LCCA performance normalized to a L1:L2 DNA ratio of 1:1 (ratio H1-L1:H1-L2), H1-L2 share (ratio part of 100) [15]: 37
median LCCA performance normalized to a L1:L2 DNA ratio of 1:1 (ratio H1-L1:H1-L2), H1-L2 share (ratio part of 100) [16]: 38
Substance: D3H44 light chain V133G_S176D_T178D_T180E
